From PMC2734569, “Functional mapping of the fission yeast DNA polymerase δ B-subunit Cdc1 by site-directed and random pentapeptide insertion mutagenesis” (BMC Molecular Biology, 2009)

Tests used:
Test in all cases: two-hybrid; LexA-Cdc1 bait (pBTM116 or pBTM116BN) with Gal4 activation domain-Cdc27 prey (pGAD2F-Cdc27) in S. cerevisiae CTY10-5d; ONPG liquid culture beta-galactosidase assay, mean of triplicates, as percent of wild-type Cdc1
[1] = target: T1, Cdc1-J3 (Schizosaccharomyces pombe, UniProt P87324 1-462, Leu-GlyValProLeuLeu-Asp); conditions: partners not purified
T1 construct: Cdc1, S. pombe, with a pentapeptide inserted after residue 62; also called E3; E8; source: yeast two-hybrid fusion, in S. cerevisiae CTY10-5d
T1 sequence (looked up): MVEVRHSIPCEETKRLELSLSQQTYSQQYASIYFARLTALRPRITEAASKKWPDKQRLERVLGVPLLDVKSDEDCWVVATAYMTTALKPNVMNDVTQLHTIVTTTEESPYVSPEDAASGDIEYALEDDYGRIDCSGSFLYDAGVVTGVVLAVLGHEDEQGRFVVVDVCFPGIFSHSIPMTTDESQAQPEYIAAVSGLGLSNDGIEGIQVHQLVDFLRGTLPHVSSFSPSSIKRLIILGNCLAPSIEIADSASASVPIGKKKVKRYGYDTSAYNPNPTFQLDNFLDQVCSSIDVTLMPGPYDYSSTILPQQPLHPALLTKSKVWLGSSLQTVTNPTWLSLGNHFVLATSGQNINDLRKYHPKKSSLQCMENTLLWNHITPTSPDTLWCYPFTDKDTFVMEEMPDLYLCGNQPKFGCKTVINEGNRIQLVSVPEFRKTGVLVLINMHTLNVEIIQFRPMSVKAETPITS

[2] = target: T2, Cdc1-J4 (Schizosaccharomyces pombe, UniProt P87324 1-462, Ile-GlyValProArgIle-Asp); conditions: partners not purified
T2 construct: Cdc1, S. pombe, with a pentapeptide inserted after residue 127; also called J5; J13; source: yeast two-hybrid fusion, in S. cerevisiae CTY10-5d
T2 sequence (looked up): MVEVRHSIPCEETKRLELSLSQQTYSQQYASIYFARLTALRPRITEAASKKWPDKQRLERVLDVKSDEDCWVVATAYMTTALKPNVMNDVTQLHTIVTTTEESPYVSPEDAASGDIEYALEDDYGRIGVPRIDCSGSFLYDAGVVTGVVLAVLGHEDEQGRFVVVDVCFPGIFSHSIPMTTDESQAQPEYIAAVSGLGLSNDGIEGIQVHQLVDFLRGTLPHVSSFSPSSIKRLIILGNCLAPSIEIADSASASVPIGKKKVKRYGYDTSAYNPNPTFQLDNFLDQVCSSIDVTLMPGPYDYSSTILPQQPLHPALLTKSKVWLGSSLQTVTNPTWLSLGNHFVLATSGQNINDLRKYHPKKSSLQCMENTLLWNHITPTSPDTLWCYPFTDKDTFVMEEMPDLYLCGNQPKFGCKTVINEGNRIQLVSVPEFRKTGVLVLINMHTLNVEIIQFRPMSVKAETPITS

[3] = target: Cdc1-J17 (Schizosaccharomyces pombe) (UniProt P87324)

two-hybrid beta-galactosidase activity, % of wild-type Cdc1 [1]: < 1%
two-hybrid beta-galactosidase activity, % of wild-type Cdc1 [2]: < 1%
two-hybrid beta-galactosidase activity, % of wild-type Cdc1 [3]: < 1%
B1: Cdc27 (fission yeast DNA polymerase delta C-subunit) (natural protein, Schizosaccharomyces pombe, UniProt P30261 1-372, looked up)
chain: MEEWRNFLDIKVINESSLVTVDNLSLQLDISSEKAQEYLNMFYQGNDFLYPIYLIHGQPIDDEINLEIDEESQPISNFPVLQYILCDKSSLQEKQSRLKSGYKTVIFALSSAPLSDFDELLPAVYEIREKDVLYKKEDADKYGFIFNENSVPRVLKKAPSTHSPQLSVPSKTSTIDKTDTRSTEKTKGKDIFSNARNQKGNSSRKNKKAPLENHKEKEPLLPKEEKLSEQAKRERDDLKNIMQLEDESVSTTSVHDSEDDNLDSNNFQLEIGTEAKSAAPDEPQEIIKSVSGGKRRGKRKVKKYATTKDEEGFLVTKEEEVWESFSEDENISTGTSNVVRNKPTTVNIATKKKNTAQSKPQQKSIMSFFGKK
notes: DNA polymerase delta C-subunit Cdc27, S. pombe; prey plasmid pGAD2F-Cdc27; also called pGAD2F-Cdc27; source: yeast two-hybrid fusion, in S. cerevisiae CTY10-5d
